{
  "source": "paper PMC6850273",
  "about": "“Cyanophage MazG is a pyrophosphohydrolase but unable to hydrolyse magic spot nucleotides” (Environmental Microbiology Reports, 2019)",
  "proteins": {"B1": {"name": "Synechococcus sp. WH7803 'large' MazG (Syn MazG) (Synechococcus sp. WH 7803) (protein)", "chain": "MAQHATVPGDQDPLRYLESVVARLRDPVNGCPWDLEQTHASLVPYVLEEAHEVADAIRHGDDRHLKEELGDLLLQVVLHARIGAENNRFDLDAIATTISDKLIRRHPHVFGEARAENTEAVRLSWEAIKAAERAEQSGGEQSSSPLSDQLAGKVRGQPALAAAMTISRKAAKAGFEWDAIDGVWGKVQEELDELKEAIASGDRRHAQDELGDVLFTLVNVARWCGLDPEEGLAATNQRFLDRFSRVESALNGDLQGRSIQELEALWQQAKAAIRAENTQSS", "notes": "recombinant, over-expressed in E. coli and purified (tag details only in supplement); two MazG domains"}, "B2": {"name": "cyanophage S-PM2 MazG (viral MazG) (Synechococcus phage S-PM2) (protein)", "chain": "MSKVNFERYQEFVSEVTSDASTNFVDFADRIGELDREGANIERLLTAGVGINAEGGEFLEIIKKMVFQGKPWNRDNREHLIIELGDIMWYVAQACIALGVSFDDVISGNVKKLEKRYPGGEFDVFYSENRSADDR", "notes": "recombinant, over-expressed in E. coli, purified by imidazole elution (tag details only in supplement); single MazG domain"}},
  "assay_in_all_cases": "PiPER pyrophosphate assay kit, released phosphate",
  "details_in_all_cases": "1 μg purified protein; SE of three replicates",
  "key": {"[1]": {"substrate": "Nc1ncnc2c1ncn2[C@H]1C[C@H](O)[C@@H](COP(=O)(O)OP(=O)(O)OP(=O)(O)O)O1", "format": "biochemical, Synechococcus sp. WH 7803", "text": "(§1) PiPER pyrophosphate assay kit, released phosphate on Synechococcus sp. WH7803 'large' MazG (Syn MazG)"}, "[2]": {"substrate": "Nc1ccn([C@@H]2O[C@H](COP(=O)(O)OP(=O)(O)OP(=O)(O)O)[C@@H](O)[C@H]2O)c(=O)n1", "format": "biochemical, Synechococcus sp. WH 7803", "text": "as §1"}, "[3]": {"substrate": "Nc1ccn([C@H]2C[C@H](O)[C@@H](COP(=O)(O)OP(=O)(O)OP(=O)(O)O)O2)c(=O)n1", "format": "biochemical, Synechococcus sp. WH 7803", "text": "as §1"}, "[4]": {"substrate": "O=c1ccn([C@@H]2O[C@H](COP(=O)(O)OP(=O)(O)OP(=O)(O)O)[C@@H](O)[C@H]2O)c(=O)[nH]1", "format": "biochemical, Synechococcus sp. WH 7803", "text": "as §1"}, "[5]": {"substrate": "Nc1nc2c(ncn2[C@H]2C[C@H](O)[C@@H](COP(=O)(O)OP(=O)(O)OP(=O)(O)O)O2)c(=O)[nH]1", "format": "biochemical, Synechococcus sp. WH 7803", "text": "as §1"}, "[6]": {"substrate": "Nc1nc2c(ncn2[C@@H]2O[C@H](COP(=O)(O)OP(=O)(O)OP(=O)(O)O)[C@@H](O)[C@H]2O)c(=O)[nH]1", "format": "biochemical, Synechococcus sp. WH 7803", "text": "as §1"}, "[7]": {"substrate": "Nc1ncnc2c1ncn2[C@@H]1O[C@H](COP(=O)(O)OP(=O)(O)OP(=O)(O)O)[C@@H](O)[C@H]1O", "format": "biochemical, Synechococcus sp. WH 7803", "text": "as §1"}, "[8]": {"substrate": "Nc1ncnc2c1ncn2[C@H]1C[C@H](O)[C@@H](COP(=O)(O)OP(=O)(O)OP(=O)(O)O)O1", "format": "biochemical, Synechococcus phage S-PM2", "text": "(§2) PiPER pyrophosphate assay kit, released phosphate on cyanophage S-PM2 MazG (viral MazG)"}, "[9]": {"substrate": "Cc1cn([C@H]2C[C@H](O)[C@@H](COP(=O)(O)OP(=O)(O)OP(=O)(O)O)O2)c(=O)[nH]c1=O", "format": "biochemical, Synechococcus phage S-PM2", "text": "as §2"}, "[10]": {"substrate": "Nc1ccn([C@@H]2O[C@H](COP(=O)(O)OP(=O)(O)OP(=O)(O)O)[C@@H](O)[C@H]2O)c(=O)n1", "format": "biochemical, Synechococcus phage S-PM2", "text": "as §2"}, "[11]": {"substrate": "Nc1ccn([C@H]2C[C@H](O)[C@@H](COP(=O)(O)OP(=O)(O)OP(=O)(O)O)O2)c(=O)n1", "format": "biochemical, Synechococcus phage S-PM2", "text": "as §2"}, "[12]": {"substrate": "O=c1ccn([C@H]2C[C@H](O)[C@@H](COP(=O)(O)OP(=O)(O)OP(=O)(O)O)O2)c(=O)[nH]1", "format": "biochemical, Synechococcus phage S-PM2", "text": "as §2"}, "[13]": {"substrate": "O=c1ccn([C@@H]2O[C@H](COP(=O)(O)OP(=O)(O)OP(=O)(O)O)[C@@H](O)[C@H]2O)c(=O)[nH]1", "format": "biochemical, Synechococcus phage S-PM2", "text": "as §2"}, "[14]": {"substrate": "Nc1nc2c(ncn2[C@H]2C[C@H](O)[C@@H](COP(=O)(O)OP(=O)(O)OP(=O)(O)O)O2)c(=O)[nH]1", "format": "biochemical, Synechococcus phage S-PM2", "text": "as §2"}, "[15]": {"substrate": "Nc1nc(O)nc2c1ncn2[C@H]1C[C@H](O)[C@@H](COP(=O)(O)OP(=O)(O)OP(=O)(O)O)O1", "format": "biochemical, Synechococcus phage S-PM2", "text": "as §2"}, "[16]": {"substrate": "Nc1ncnc2c1ncn2[C@@H]1O[C@H](COP(=O)(O)OP(=O)(O)OP(=O)(O)O)[C@@H](O)[C@H]1O", "format": "biochemical, Synechococcus phage S-PM2", "text": "as §2"}},
  "data": [
    {"protein": "B1", "values": [
      {"measurement": "Km", "setting": "[1]", "result": "0.3 (±0.09) mM"},
      {"measurement": "Vmax", "setting": "[1]", "result": 1.8, "unit": "µmol/min/mg"},
      {"measurement": "kcat", "setting": "[1]", "result": "2.1 ± 0.323", "unit": "s⁻¹"},
      {"measurement": "Km", "setting": "[2]", "result": "1.2 (±0.21) mM"},
      {"measurement": "Vmax", "setting": "[2]", "result": 1.96, "unit": "µmol/min/mg"},
      {"measurement": "kcat", "setting": "[2]", "result": "2.3 ± 0.164", "unit": "s⁻¹"},
      {"measurement": "Km", "setting": "[3]", "result": "0.14 (±0.03) mM"},
      {"measurement": "Vmax", "setting": "[3]", "result": 3.81, "unit": "µmol/min/mg"},
      {"measurement": "kcat", "setting": "[3]", "result": "4.46 ± 0.417", "unit": "s⁻¹"},
      {"measurement": "Km", "setting": "[4]", "result": "1.33 (±0.3) mM"},
      {"measurement": "Vmax", "setting": "[4]", "result": 3.02, "unit": "µmol/min/mg"},
      {"measurement": "kcat", "setting": "[4]", "result": "3.68 ± 0.1", "unit": "s⁻¹"},
      {"measurement": "Km", "setting": "[5]", "result": "0.85 (±0.07) mM"},
      {"measurement": "Vmax", "setting": "[5]", "result": 0.64, "unit": "µmol/min/mg"},
      {"measurement": "kcat", "setting": "[5]", "result": "0.753 ± 0.293", "unit": "s⁻¹"},
      {"measurement": "Km", "setting": "[6]", "result": "0.26 (±0.02) mM"},
      {"measurement": "Vmax", "setting": "[6]", "result": 0.7, "unit": "µmol/min/mg"},
      {"measurement": "kcat", "setting": "[6]", "result": "0.824 ± 0.153", "unit": "s⁻¹"},
      {"measurement": "Km", "setting": "[7]", "result": "0.63 (±0.23) mM"},
      {"measurement": "Vmax", "setting": "[7]", "result": 2.55, "unit": "µmol/min/mg"},
      {"measurement": "kcat", "setting": "[7]", "result": "2.99 ± 0.407", "unit": "s⁻¹"}
    ]},
    {"protein": "B2", "values": [
      {"measurement": "Km", "setting": "[8]", "result": "1.2 (±0.21) mM"},
      {"measurement": "Vmax", "setting": "[8]", "result": 1.62, "unit": "µmol/min/mg"},
      {"measurement": "kcat", "setting": "[8]", "result": "1.05 ± 0.124", "unit": "s⁻¹"},
      {"measurement": "Km", "setting": "[9]", "result": "1.23 (±0.06) mM"},
      {"measurement": "Vmax", "setting": "[9]", "result": 5.68, "unit": "µmol/min/mg"},
      {"measurement": "kcat", "setting": "[9]", "result": "3.68 ± 0.13", "unit": "s⁻¹"},
      {"measurement": "Km", "setting": "[10]", "result": "0.85 (±0.11) mM"},
      {"measurement": "Vmax", "setting": "[10]", "result": 2.51, "unit": "µmol/min/mg"},
      {"measurement": "kcat", "setting": "[10]", "result": "1.62 ± 0.111", "unit": "s⁻¹"},
      {"measurement": "Km", "setting": "[11]", "result": "1.16 (±0.04) mM"},
      {"measurement": "Vmax", "setting": "[11]", "result": 8.86, "unit": "µmol/min/mg"},
      {"measurement": "kcat", "setting": "[11]", "result": "5.74 ± 0.129", "unit": "s⁻¹"},
      {"measurement": "Km", "setting": "[12]", "result": "3.24 (±1.55) mM"},
      {"measurement": "Vmax", "setting": "[12]", "result": 4.22, "unit": "µmol/min/mg"},
      {"measurement": "kcat", "setting": "[12]", "result": "4.94 ± 0.395", "unit": "s⁻¹"},
      {"measurement": "Km", "setting": "[13]", "result": "0.6 (±0.37) mM"},
      {"measurement": "Vmax", "setting": "[13]", "result": 3.31, "unit": "µmol/min/mg"},
      {"measurement": "kcat", "setting": "[13]", "result": "2.15 ± 0.119", "unit": "s⁻¹"},
      {"measurement": "Km", "setting": "[14]", "result": "0.14 (±0.01) mM"},
      {"measurement": "Vmax", "setting": "[14]", "result": 10.3, "unit": "µmol/min/mg"},
      {"measurement": "kcat", "setting": "[14]", "result": "6.67 ± 0.165", "unit": "s⁻¹"},
      {"measurement": "Km", "setting": "[15]", "result": "4.86 (±1.13) mM"},
      {"measurement": "Vmax", "setting": "[15]", "result": 1.65, "unit": "µmol/min/mg"},
      {"measurement": "kcat", "setting": "[15]", "result": "1.93 ± 0.0658", "unit": "s⁻¹"},
      {"measurement": "Km", "setting": "[16]", "result": "1.43 (±0.36) mM"},
      {"measurement": "Vmax", "setting": "[16]", "result": 2.28, "unit": "µmol/min/mg"},
      {"measurement": "kcat", "setting": "[16]", "result": "1.48 ± 0.157", "unit": "s⁻¹"}
    ]}
  ]
}
